# Assay results as given in publication PMC3845908 (Journal of the American Chemical Society, 2012).
# Read-outs that look alike come from different tables or passages of the source.
# Legend:
# [1] = molecular target: the molecule itself; test: pulsed double electron-electron resonance
# [2] = molecular target: the molecule itself; test: pulsed double electron-electron resonance; remark: listed apart in the source
Protein,binding result [1],binding result [2]
"Streptomyces lividans KcsA R64C, MTSL spin-labelled (natural protein, UniProt P0A334 1-160, looked up, MTSL spin label on the cysteine at 64) MPPMLSGLLARLVKLLLGRHGSALHWRAAGAATVLLVIVLLAGSYLAVLAERGAPGAQLITYPCALWWSVETATTVGYGDLYPVTLWGRLVAVVVMVAGITSFGLVTAALATWFVGREQERRGHFVRHSEKAAEEAYTRTTRALHERFDRLERMLDDNRR",binds,–
"Streptomyces lividans KcsA F114C full length, MTSL spin-labelled (natural protein, UniProt P0A334 1-160, looked up, MTSL spin label on the cysteine at 114) MPPMLSGLLARLVKLLLGRHGSALHWRAAGAATVLLVIVLLAGSYLAVLAERGAPGAQLITYPRALWWSVETATTVGYGDLYPVTLWGRLVAVVVMVAGITSFGLVTAALATWCVGREQERRGHFVRHSEKAAEEAYTRTTRALHERFDRLERMLDDNRR",–,binds
